In the supplement of paper PMC9170038:

Test system: MS2 coat protein
Assay: apparent KD of MS2 coat protein; designed switch direction (-1 OFF switch, 1 ON switch): 1; higher = weaker reporter binding
Outline: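 Designed RNA switches sharing common flanks were transcribed on Illumina chips by stalled E. coli RNA polymerase. They were titrated with SNAP-549-labelled MS2 coat protein, from 0.7 or 1.5 nM doubling to 3 µM, in Tris-HCl pH 7.5 buffer with KCl, MgCl2, BSA, DTT, tRNA and Tween-20. Titrations ran without input, with 200 uM small-molecule ligand, or with an oligonucleotide input. The apparent KD of each design is the median over its clusters, after curve-fitting of normalised cluster fluorescence.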

[1] = input ligand: microRNA oligo, concentration not stated
[2] = Eterna round: R95, input ligand: FMN 200 uM
[3] = Eterna round: R95, input ligand: microRNA oligo, concentration not stated
[4] = Eterna round: R95, input ligand: none

| Sequence | apparent KD of MS2 coat protein (input ligand: FMN 200 uM) | apparent KD of MS2 coat protein [1] | apparent KD of MS2 coat protein (input ligand: none) | apparent KD of MS2 coat protein [2] | apparent KD of MS2 coat protein [3] | apparent KD of MS2 coat protein [4] |
| --- | --- | --- | --- | --- | --- | --- |
| UUUAUUAAUGCAGGAUAUGAUUAACAUGAGGAUCACCCAUGUGGUGUUGUGAGUAAGGAGAGUGAUCAGAAGGGCAUUUUUUUU [JMF's solution 39] (Eterna round: R96, puzzle: Same State NG 2) | 524 nM | 430 nM | 402 nM | – | – | – |
| GCGAGCGUACUUGCUACAUGAGGAUCACCCAUGUUCGUUGGACAGGAUAUGGUACCGUUUCGGUACCAGAAGGGUUCAUCAUGU [JL SSNG3 3.75] (Eterna round: R96, puzzle: Same State NG 3) | 356 nM | 188 nM | 278 nM | – | – | – |
| UAUCUCAUGUAAGGAUAUGCAGCCGUUUCGGCUGCAGAAGGUACUAUAAUACAUGAGGAUCACCCAUGUCUCUCGCAUUGCGAG [JL SSNG1 1.49] (Eterna round: R96, puzzle: Same State NG 1) | 186 nM | 150 nM | 293 nM | – | – | – |
| UUAGUCAUGUAAGGAUAUGCAGCCGAAACGGCUGCAGAAGGUACUAUAAUUACAUGAGGAUCACCCAUGUUAUAAAAUUUAUAU [Mat - Same State NG 1 - JL mod - D62] (Eterna round: R96, puzzle: Same State NG 1) | 23.4 nM | 28.7 nM | 41.2 nM | – | – | – |
| CCACUCUGCGGAGGAUAUGGGCCUGCCCGGGAUAACGGGCCUAAUACAUGAGGAUCACCCAUGUCCCAGAAGGCCGCUAGAGCC [Xeusza] (Eterna round: R96, puzzle: Same State NG 2) | 18.8 nM | 92.4 nM | 139 nM | – | – | – |
| GGUGCCAAAUAAGCCUACAUGAGGAUCACCCAUGUAUGUAGGUAGGAUAUCGUAUGCAAAGCAUACGAGAAGGGCCUAGGCACC [Mat - Same State NG 3 - JL Mod - D60] (Eterna round: R96, puzzle: Same State NG 3) | 18.1 nM | 37.3 nM | 60.7 nM | – | – | – |
| AACAAUCUAUCUGAGGAUAUCAUGAAAAAAACAUGAGGAUCACCCAUGUGCAGGAAAACUGCAUAUGAGAAGGCAGAUAGAUUGU [salish99_SS2_r3_002] (puzzle: Same State 2) | – | – | – | 28.9 nM | 621 nM | 769 nM |
| CGAUGAAACAAAGGAAGAAGAGUUGAAGUACAUGAGGAUCACCCAUGUCAGAGCUUUUUGCUCGUCAUGAACAGGAA [JR_SHM208a_Sub004] (puzzle: Sensor for hsa-mir-208a) | – | – | – | 35.9 nM | 24.4 nM | 54.9 nM |
| GGUGCCAAAUAAGCCUACAUGAGGAUCACCCAUGUAUGUAGGCAGGAUAUCGUUUGCAAAGCAAACGAGAAGGGCCUAGGCACC [Mat - Same State NG 3 - JL Mod - D62] (Eterna round: R96, puzzle: Same State NG 3) | 19.1 nM | 18.5 nM | 35.2 nM | – | – | – |
| AGAUCAUGACGAGGAUAUGGUACAUGAGGAUCACCCAUGUAUGUACUAUAAUCCGAAUGAGGAAUCCAGAAGGCGUCGUGGUCA [JL SSNG2 1.14] (Eterna round: R96, puzzle: Same State NG 2) | 44.9 nM | 94.1 nM | 145 nM | – | – | – |
| CCGGCCACACAACAAGGCCAACAUGAGGAUCACCCAUGUACACAGGAUAUCGGCAGCCAAGGCUCCGAGAAGGGUGGUUCAAUU [Beage] (Eterna round: R96, puzzle: Same State NG 3) | 438 nM | 145 nM | 234 nM | – | – | – |
| CUGAGCAAUCAAGGAUAUCACGUCGAUUAGACGUGAGAAGGUGAUCAUUACAUGAGGAUCACCCAUGUAUUACAUGGAGCUCAG [Brourd's SSNG1/1-A2 mod 2] (Eterna round: R96, puzzle: Same State NG 1) | – | 833 nM | – | – | – | – |
| UUGGGUUUGCGAGGAUAUCGUUUGUGAUUUGAUCGAGAAGGCGCUAUUUAAAUUAUUUUAACAUUACAUGAGGAUCACCCAUGU [JR_SSNG1_Sub022] (Eterna round: R96, puzzle: Same State NG 1) | – | 14.8 nM | – | – | – | – |
| ACAUGAGAGUUAGGAUAUGUUGUACCUACAUGUGACAUGAGGAUCACCCAUGUGGUAAGUAUGAGGCAGAAGGGACAGAUAUGU [Equivalence 46 - Jieux - Same State NG 2] (Eterna round: R96, puzzle: Same State NG 2) | 75.7 nM | 51.7 nM | 137 nM | – | – | – |
| CGUCGUUUGAUAGGAUAUCGCUUUACAUGAGGAUCGCCCAUGUUUACCACGCUGGUUUUUCUUUCCGAGAAGGAUUCUGAUGUU [salish99_SSNG02_r04_027] (Eterna round: R96, puzzle: Same State NG 2) | 28.4 nM | 10.5 nM | 4.85 nM | – | – | – |
| GAGAGAUGGUUAGGAUAUUCGGUGAUAAUGAUAGAAGAAGGAACUGACAUGAGGAUCACCCAUGUGGGAAUAAUCCAGAGAGAG [Parity 20 - Jieux - Same State NG 1] (Eterna round: R96, puzzle: Same State NG 1) | 103 nM | 85 nM | 107 nM | – | – | – |
